Patent US20210221894A1 (DRAGONFLY THERAPEUTICS, published 2021)

Assays:
[1] = target: T1, human DLL3-His (human, UniProt Q9NYJ7 27-492); assay: SPR (Biacore 8K), 37 C, m5E7 captured on anti-mouse Fc, DLL3-His 0.411-300 nM injected, 1:1 fit
T1 construct: also called hDLL3
T1 sequence: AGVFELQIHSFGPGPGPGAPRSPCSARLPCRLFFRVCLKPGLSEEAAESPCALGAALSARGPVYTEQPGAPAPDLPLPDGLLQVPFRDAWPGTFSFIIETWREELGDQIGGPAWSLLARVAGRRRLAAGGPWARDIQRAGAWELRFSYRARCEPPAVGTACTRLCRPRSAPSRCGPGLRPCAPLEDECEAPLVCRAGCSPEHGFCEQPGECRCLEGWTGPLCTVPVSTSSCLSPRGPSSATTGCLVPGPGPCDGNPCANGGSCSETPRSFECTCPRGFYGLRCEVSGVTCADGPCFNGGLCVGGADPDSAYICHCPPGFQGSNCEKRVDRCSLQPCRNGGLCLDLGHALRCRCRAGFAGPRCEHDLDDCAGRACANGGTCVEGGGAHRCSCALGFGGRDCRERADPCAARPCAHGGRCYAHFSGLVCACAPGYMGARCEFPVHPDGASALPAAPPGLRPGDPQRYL
Source text: The kinetics of binding of different humanized variants and parental murine 5E7 antibody to human DLL3-His was studied by Surface Plasmon Resonance using a Biacore 8K instrument. Briefly, anti-hFc and anti-mFc IgG proteins were covalently immobilized onto different channels of CMS chip to allow simultaneous analysis of human and murine antibodies. m5E7 was captured on the anti-mouse Fc channel and humanized variants were captured on the anti-human Fc channel at a desired capture level of […] in HBS-EP+ buffer supplemented with 0.1% BSA. Three buffer blanks and human DLL3-His (analyte) at concentrations 0.411-300 nM (in three fold dilutions) were injected over the surface with captured murine or humanized 5E7 for 300 second association time and let dissociate for 600 second at a flow rate of 30 μL/min. The surfaces were subjected to regeneration with three 20-second pulses of 10 mM glycine pH 1.70 at a flow rate of 100 μL/min between every concentration of analyte. The experiment was conducted at 37° C. Data were double referenced and a 1:1 fit model was applied to the sensorgrams in the Biacore Insight Evaluation software.
The kinetic parameters of human DLL3-His binding to murine and humanized variants of 5E7 antibody variants were calculated and shown in Table 39.

[2] = target: T2, recombinant His-tagged EGF5-6 domains of human DLL3 (human, UniProt Q9NYJ7 391-492, limits assumed); assay: SPR (Biacore 8K), 37 C, antibody captured on anti-mouse Fc
T2 sequence: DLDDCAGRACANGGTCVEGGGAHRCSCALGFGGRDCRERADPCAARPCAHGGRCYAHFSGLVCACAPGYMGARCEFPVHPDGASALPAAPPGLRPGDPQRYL
Source text: (§1) The binding kinetics of different anti-DLL3 antibodies to recombinant proteins of different domains of human DLL3 were studied by surface plasmon resonance (SPR) using a Biacore™ 8K instrument. These anti-DLL3 antibodies were produced from mouse hybridomas, and each included a heavy chain variable region and light chain variable region described herein. Briefly, antibodies recognizing human IgG Fc and antibodies recognizing mouse IgG Fc were immobilized on different channels of a Biacore™ 8K chip to allow simultaneous analysis of human and murine anti-DLL3 antibodies. Murine anti-DLL3 antibodies were captured on the anti-mouse Fc channel of the Biacore chip. The human anti-DLL3 antibody from Stemcentrx (San Francisco, Calif.) was used as a control and was captured onto anti-human Fc channel of the Biacore™ chip. Different concentrations of DLL3 ECD, DLL3 N-terminal domain, EGF2-6, EGF3-6, EGF4-6, or EGF5-6 domains of DLL3 were injected. Experiments were performed at 37° C. Biacore™ 8K evaluation software was used for all data analysis. To obtain kinetic rate constants double-referenced data were fit to a 1:1 interaction model using Biacore™ 8K Evaluation software (GE Healthcare, Marlborough, Mass.). The equilibrium binding constant KD was determined by the ratio of binding rate constants kd/kₐ. […]

[3] = target: T3, recombinant His-tagged N-terminal domain of human DLL3 (human, UniProt Q9NYJ7 27-175, limits assumed); assay: as above
T3 construct: also called DLL3 N-terminal domain
T3 sequence: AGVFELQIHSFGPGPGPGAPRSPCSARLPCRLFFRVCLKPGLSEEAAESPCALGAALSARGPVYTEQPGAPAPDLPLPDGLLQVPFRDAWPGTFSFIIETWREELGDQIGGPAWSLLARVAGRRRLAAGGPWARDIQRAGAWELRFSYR
Source text: as §1

[4] = target: T4, extracellular domain (ECD) of human DLL3 (AdipoGen Life Sciences) (human, UniProt Q9NYJ7 27-492); assay: SPR (Biacore 8K), 37 C, antibody captured on anti-mouse Fc, DLL3 ECD injected, 1:1 fit
T4 construct: Bought and further purified by size exclusion chromatography; also called hDLL3 ECD; DLL3 ECD
T4 sequence: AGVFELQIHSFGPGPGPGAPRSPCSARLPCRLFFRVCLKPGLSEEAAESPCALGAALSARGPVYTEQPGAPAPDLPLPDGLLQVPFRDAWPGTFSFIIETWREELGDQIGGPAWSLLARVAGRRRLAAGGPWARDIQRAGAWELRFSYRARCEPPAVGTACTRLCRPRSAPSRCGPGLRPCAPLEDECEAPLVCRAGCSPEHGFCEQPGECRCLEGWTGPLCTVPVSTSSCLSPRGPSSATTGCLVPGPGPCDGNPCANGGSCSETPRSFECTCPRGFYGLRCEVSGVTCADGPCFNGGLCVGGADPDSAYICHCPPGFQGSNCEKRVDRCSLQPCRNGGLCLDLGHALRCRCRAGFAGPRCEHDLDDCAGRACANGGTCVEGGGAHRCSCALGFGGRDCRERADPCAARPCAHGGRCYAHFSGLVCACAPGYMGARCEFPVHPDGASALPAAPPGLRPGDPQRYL
Source text: The binding kinetics of different anti-DLL3 antibodies to recombinant proteins of different domains of human DLL3 were studied by surface plasmon resonance (SPR) using a Biacore™ 8K instrument. These anti-DLL3 antibodies were produced from mouse hybridomas, and each included a heavy chain variable region and light chain variable region described herein. Briefly, antibodies recognizing human IgG Fc and antibodies recognizing mouse IgG Fc were immobilized on different channels of a Biacore™ 8K chip to allow simultaneous analysis of human and murine anti-DLL3 antibodies. Murine anti-DLL3 antibodies were captured on the anti-mouse Fc channel of the Biacore chip. The human anti-DLL3 antibody from Stemcentrx (San Francisco, Calif.) was used as a control and was captured onto anti-human Fc channel of the Biacore™ chip. Different concentrations of DLL3 ECD, DLL3 N-terminal domain, EGF2-6, EGF3-6, EGF4-6, or EGF5-6 domains of DLL3 were injected. Experiments were performed at 37° C. Biacore™ 8K evaluation software was used for all data analysis. To obtain kinetic rate constants double-referenced data were fit to a 1:1 interaction model using Biacore™ 8K Evaluation software (GE Healthcare, Marlborough, Mass.). The equilibrium binding constant KD was determined by the ratio of binding rate constants kd/kₐ.
Table 36 lists the calculated binding kinetics (KD). […] Stemcentrx anti-DLL3 antibody was used as a control.

B1: murine anti-DLL3 antibody clone 5E7 (antibody, V domains shown)
VH: EVQLQQSGAELVRPGASVKLSCTASGFNIKDDYIHWVKQWPEQGLEWIGWIDSENGDTEYASKFQGKATMTADTSSNTAYLQLSGLTSEDTAVYYCTTSSYYSYDLFVYWGQGTLVTVSA
VL: DVLMTQTPLTLSVPIGQPASISCKSSQSLLHSNGKTYLNWLLQRPGQSPKLLIYLVSKLESGVPDRFSGSGSGTDFTLKISRVEAEDLGVYYCLQTTHLYTFGGGTKLEIK
notes: Murine antibody produced from a mouse hybridoma, captured on anti-mouse Fc in SPR; also called m5E7; murine 5E7
- Kd [1]: 1.22 nM
- koff [1]: 0.00145 s⁻¹
- kon [1]: 1.19e+06 M⁻¹ s⁻¹
- binding result [2]: no binding
- binding result [3]: no binding
- Kd [4]: 0.203 nM
- koff [4]: 6.47e-05 s⁻¹
- kon [4]: 319000 M⁻¹ s⁻¹
